Paper PMC6723090

Target: synthetic CDR1 peptide … with N-terminal Biotin-[TTDS] linker (human)
Assay: affinity purification with mass spectrometry; spike-in: 2 ug recombinant HTRA2 added to 5 mg homogenized pig retina; beads with CDR peptide, scrambled peptide or biotin only (n = 3); eluates on 1-D SDS-PAGE, gel region above 49 kDa digested with trypsin, LC-MS/MS intensity of HTRA2

**Q.** How did the LC-MS intensity of recovered HTRA2 turn out when “recombinant HTRA2/Omi (Human Serine Protease, cat. no. C760) (from UniProt O43464 32-458) (enzyme)” was run?
**A.** 4.2e+08
